Molecular target: Human Hsp90α (human, UniProt P07900 1-732)
Experiment: cryo-EM structure

stoichiometry N: 1 p23 per Hsp90 dimer
B1: Human p23 (natural protein, UniProt Q15185 1-160, looked up)
chain: MQPASAKWYDRRDYVFIEFCVEDSKDVNVNFEKSKLTFSCLGGSDNFKHLNEIDLFHCIDPNDSKHKRTDRSILCCLRKGESGQSWPRLTKERAKLNWLSVDFNNWKDWEDDSDEDMSNFDRFSEMMNNMGGDEDVDLPEVDGADDDSQDSDDEKMPDLE
